{
  "source": "paper PMC4188797",
  "about": "(Neuropharmacology, 2014)",
  "proteins": {"B1": {"name": "metabotropic glutamate receptor 1 splice variant mGluR1b (endogenous, rat brain) (receptor, rat (endogenous in rat brain), UniProt P23385-2 19-906, looked up)", "chain": "LPRMPDRKVLLAGASSQRSVARMDGDVIIGALFSVHHQPPAEKVPERKCGEIREQYGIQRVEAMFHTLDKINADPVLLPNITLGSEIRDSCWHSSVALEQSIEFIRDSLISIRDEKDGLNRCLPDGQTLPPGRTKKPIAGVIGPGSSSVAIQVQNLLQLFDIPQIAYSATSIDLSDKTLYKYFLRVVPSDTLQARAMLDIVKRYNWTYVSAVHTEGNYGESGMDAFKELAAQEGLCIAHSDKIYSNAGEKSFDRLLRKLRERLPKARVVVCFCEGMTVRGLLSAMRRLGVVGEFSLIGSDGWADRDEVIEGYEVEANGGITIKLQSPEVRSFDDYFLKLRLDTNTRNPWFPEFWQHRFQCRLPGHLLENPNFKKVCTGNESLEENYVQDSKMGFVINAIYAMAHGLQNMHHALCPGHVGLCDAMKPIDGRKLLDFLIKSSFVGVSGEEVWFDEKGDAPGRYDIMNLQYTEANRYDYVHVGTWHEGVLNIDDYKIQMNKSGMVRSVCSEPCLKGQIKVIRKGEVSCCWICTACKENEFVQDEFTCRACDLGWWPNAELTGCEPIPVRYLEWSDIESIIAIAFSCLGILVTLFVTLIFVLYRDTPVVKSSSRELCYIILAGIFLGYVCPFTLIAKPTTTSCYLQRLLVGLSSAMCYSALVTKTNRIARILAGSKKKICTRKPRFMSAWAQVIIASILISVQLTLVVTLIIMEPPMPILSYPSIKEVYLICNTSNLGVVAPVGYNGLLIMSCTYYAFKTRNVPANFNEAKYIAFTMYTTCIIWLAFVPIYFGSNYKIITTCFAVSLSVTVALGCMFTPKMYIIIAKPERNVRSAFTTSDVVRMHVGDGKLPCRSNTFLNIFRRKKPGAGNAKKRQPEFSPSSQCPSAHAQL"}},
  "biological_target": "the molecule itself",
  "experiment": "SDS-PAGE and immunoblot of dimer bands in subcellular fractions",
  "data": [
    {"protein": "B1", "values": [
      {"measurement": "stoichiometry N", "value": 2}
    ]}
  ]
}
